For one data set, the system named is Dpb2. As to the kind of experiment: Yeast two-hybrid with Dpb2. It counts as binding, budding yeast. The procedure: (§1) Yeast growth, two-hybrid analysis, and immunoprecipitation experiments were performed as described in detail previously ([Maculins et al., 2015], [Maric et al., 2014]). A two-hybrid screen against amino acids 461–927 of Ctf4 was performed by the company Hybrigenics.

The next data set concerns Pol1. The experiment in a line: Yeast two-hybrid with Pol1. It counts as binding, budding yeast. The procedure: as §1
The subject of another data set is CMG helicase. The experiment in a line: Co-purification with CMG helicase from yeast cell extracts. It counts as cell-based, budding yeast. Conditions: extracts of S phase yeast cells; immunoprecipitation, immunoblotting. The procedure:
(D) Cultures of ctf4-4E MCM4-9MYC (YFV13) and MCM4-9MYC control cells (YSS75) were synchronized in G1-phase at 30°C and then released into S phase for 20 min. The Mcm4-9MYC was isolated from cell extracts by immunoprecipitation and the associated proteins monitored by immunoblotting. (E) ctf4-4E is synthetic lethal with mrc1Δ. The cells were processed as in Figure 1A, and the photos in the lower images were taken after 20 hr growth at 30°C (the scale bars represent 50 μm). See also Figure S2. TEXT PRINTED IN THE PICTURE: (C) Ctf4-4E (471-927): 162 kDa
as §1
A general note: Immunoblotting shows a protein as a band on a membrane.

For a further data set, the system named is Tof2. The experiment in a line: Yeast two-hybrid with Tof2. It counts as binding, budding yeast. The procedure:
as §1

A further data set has as its system Dna2. The experiment in a line: Yeast two-hybrid with Dna2. It counts as binding, budding yeast. The procedure: as §1
The test system of another data set is Ctf4. The experiment in a line: Co-purification with Ctf4 from yeast cell extracts. It counts as cell-based, budding yeast. Particulars: extracts of yeast cells; S phase and G1-phase; immunoblotting. The procedure:
Figure 3 Interaction of the Type I CIP-Box Protein Dna2 with Ctf4 Is Important for rDNA Maintenance (A) GAL-DNA2-9MYC CTF4-TAP (YFV22) and GAL-DNA2-9MYC control cells (YFV21) were grown at 30°C in rich medium containing 2% galactose and then treated as in Figure 2D. The Ctf4-TAP was isolated from cell extracts on magnetic beads coupled to IgG. (B) The smallest fragment of Dna2 that interacted with Ctf4 461–927 in the two-hybrid screen (120–456 shown in red) contains a Ctf4-interacting peptide or CIP-box, closely related to those of Sld5 and Pol1 (upper). […] (C) Mutations in the CIP-box of Dna2 abolished the interaction of full-length Dna2 (1–1,522) or Dna2 120–456 to interact with Ctf4 461–927. (D) When soaked into crystals of Ctf4 471–927, the Dna2 CIP-box binds to the helical region of Ctf4, as previously observed for the CIP-boxes of Pol1 and Sld5 ([Simon et al., 2014]). […]
Figure 4 Tof2 and Dpb2 Define a New Class of Type II CIP-Box Proteins that Bind to a Novel Binding Pocket on the Surface of Ctf4 (A) The smallest fragments of Dpb2 and Tof2 that interacted with Ctf4 461–927 in the two-hybrid screen (shown in red) were each found to contain a putative CIP-box with limited homology to the type I CIP-boxes of Sld5, Dna2, and Pol1. […] The indicated proteins were monitored by immunoblotting. […]

Data on 2 molecules can be found in article PMC4980431, “Ctf4 Is a Hub in the Eukaryotic Replisome that Links Multiple CIP-Box Proteins to the CMG Helicase” (Molecular Cell, 2016).

B1: Ctf4-3E: Ctf4 with M731, I740, and L756 mutated to glutamate; disrupts binding site for type II CIP-box proteins (protein)
chain: MVSVIDKLVFDFGGKTLVSLAPDNNTLCVANKNGLTKILKTNNPEEEPETLDSSKLVSSIKCYSNSHFLMTTMQGDALRYNIDSSQEELLARFALPLRDCCVIHSGKMAVFGGDDLELILLELDDETHKKHAIKIDEQVSQISYNSQMNILAVSMINGKVQIFSLTSTIPNKVHELNDYIVANSYDDTHRDKILSNMMDDIDKDNDNDLSETADPDENNVADPEFCAANRICTRVAWHPKGLHFALPCADDTVKIFSIKGYSLQKTLSTNLSSTKAHFIDLQFDPLRGTYIAAVDLNNKLTVWNWETSEIHYTREFKRKITNIAWKIQADSKTLDLVLGTWSGSIAIVQNLAESVVSNIPDQSVAESSTKHGLFVDSESDLENLEGNDDINKSDKLFSDITQEANAEDVFTQTHDGPSGLSEKRKYNFEDEEDFIDDDDGAGYISGKKPHNEHSYSRVHKTHSFPISLANTGKFRYMPFSPAGTPFGFTDRRYLTMNEVGYVSTVKNSEQYSITVSFFDVGRFREYHFEDLFGYDLCFLNEKGTLFGQSKTGQIQYRPHDSIHSNWTKIIPLQAGERITSVAATPVRVIVGTSLGYFRSFNQFGVPFAVEKTSPIVALTAQNYRVFSVHYSQFHGLSYSLSELGTSSKRYYKRECPLPMSLPNINSDMKKDANLDYYNFNPMGIKSLFFSSYGDPCIFGSDNTLLLLSKWRSPEESKWLPILDSNMEIWKESGGKETTDEHVWPLALAYDTLNCIEVKGKHIWPEFPLPLPSEMEIRMPVFVKSKLLEENKAILNKKNEIGADTEAEEGEEDKEIQIPVSMAAEEEYLRSKVLSELLTDTLENDGEMYGNENEVLAALNGAYDKALLRLFASACSDQNVEKALSLAHELKQDRALTAAVKISERAELPSLVKKINNIREARYEQQLK
Regarding B1, the “interaction with Dpb2 (in words)” value in the data set with Dpb2 is listed as “unable to interact”. Moreover, the “interaction with Pol1 (in words)” value with Pol1 is “without affecting interaction”. Further, the “association with CMG helicase (in words)” value with CMG helicase was “did not prevent association of Ctf4 with the CMG helicase”. Besides, the “interaction with Tof2 (in words)” value with Tof2 is listed as “abolished interaction”. In the data set with Dna2, the “interaction with Dna2 (in words)” value is “without affecting interaction”.

B2: tagged form of Tof2: tagged form of Tof2 expressed in budding yeast cells (protein)
chain: MIKMWRLQIVLVPPSAQDIITFLEARLNTPQSVSPMVQYNEDIITHNNSINNCSDPSPTSPSSQNSIQSNRSSDFINYLPNCKKFLHFTDGDNTLLQLSNEILTKFDRLYPNFKESIEIVSLQDRHGCDLDSEFIIKDVFENDGVVLVILKDELDWSRNQHISLLQLARQRRRQDNKPSTKSIVTEKRKKISKEDLSSISNKDTMHLIAKSSLKNNFINKSRVSTPLMNEILPLASKYDALNKEKCPMPLTSTVVASNVHKDVKDHARAKEGVVTQGSDNNKENIPSSTQQQKNDGAKRAESKDLDLLRNSSEDADYEPADENSPQISFDSIDTDFQLSTTSHTNSDMHIQYSNPSSGAHSPRKSSLEIKVQNKKGDDLPLNDKDIGENCRRIEAFSDEEDFNETDNDRADSFINNSKKASMGFRDINSDLDSVSFNSDIENAVQSTQSTKNVVSPPFFPEKELNNRLHQSQGKEALFRLVEKEFPDKSLGAASSTSHAKDVKIQETIRKLNRFKPTGETKVQKRNSITEPYYGKFGIMKKDKPKSITSKGVSLETKHFDDPNTIISGEKFAKFGKIKVKRKTDDVGSKVIEFKRKRNMGNRSLKDIFANAGKPPNAASTIKVVKLMRDPVDNSKDKVEATSNSTAQEQEQVSPKLPVMNSTPGKRKNGQAIPSSLERTPQLKKVKVTRSHSSPSSSSSMSLESSLDSSSSDDSDDDSDSRNVQVKKINFKTSHGPAGNSNGKPMLDVDDNEINTKKYQTPKYVESDEDDQ
modifications: left off: ProteinA, end not stated, kept
notes: tagged form of Tof2 expressed in budding yeast cells
As for B2, the “co-purification with Ctf4 (in words)” value in the data set on Ctf4 is “co-purified with Ctf4 in both G1-phase and S phase”. The “association with CMG helicase (in words)” value with CMG helicase is on record as “co-purified with the CMG helicase during S phase”.
